Assay results taken from patent US20260097113A1 (Pfizer, published 2026).

Key:
[1] = molecular target: RSV A + RSV B bivalent composition (RSV subtype A; RSV subtype B); assay: AM14 Fab titration by SEC; Target cycle; 1 M 40°C (second value)
[2] = molecular target: RSV A + RSV B bivalent composition (RSV subtype A; RSV subtype B); assay: AM14 Fab titration by SEC; High-Slow 1 cycle; 8 M 2-8°C
[3] = molecular target: RSV A + RSV B bivalent composition (RSV subtype A; RSV subtype B); assay: AM14 Fab titration by SEC; Target cycle; 1 M 25°C
[4] = molecular target: RSV A + RSV B bivalent composition (RSV subtype A; RSV subtype B); assay: AM14 Fab titration by SEC; High-Slow 2 cycle; 3 M 40°C
[5] = molecular target: RSV A + RSV B bivalent composition (RSV subtype A; RSV subtype B); assay: AM14 Fab titration by SEC; Low-Fast cycle; 8 M 2-8°C
[6] = molecular target: RSV A + RSV B bivalent composition (RSV subtype A; RSV subtype B); assay: AM14 Fab titration by SEC; Low-Fast cycle; 1 M 40°C (second value)
[7] = molecular target: RSV A + RSV B bivalent composition (RSV subtype A; RSV subtype B); assay: AM14 Fab titration by SEC; Low-Fast cycle; 8 M 40°C
[8] = molecular target: RSV A + RSV B bivalent composition (RSV subtype A; RSV subtype B); assay: AM14 Fab titration by SEC; Target cycle; 1 M 2-8°C
[9] = molecular target: RSV A + RSV B bivalent composition (RSV subtype A; RSV subtype B); assay: AM14 Fab titration by SEC; Target cycle; 8 M 25°C
[10] = molecular target: RSV A + RSV B bivalent composition (RSV subtype A; RSV subtype B); assay: AM14 Fab titration by SEC; Low-Fast cycle; 3 M 25°C
[11] = molecular target: RSV A + RSV B bivalent composition (RSV subtype A; RSV subtype B); assay: AM14 Fab titration by SEC; High-Slow 2 cycle; 1 M 40°C (second value)
[12] = molecular target: RSV A + RSV B bivalent composition (RSV subtype A; RSV subtype B); assay: AM14 Fab titration by SEC; Target cycle; T0
[13] = molecular target: RSV A + RSV B bivalent composition (RSV subtype A; RSV subtype B); assay: AM14 Fab titration by SEC; High-Slow 1 cycle; 1 M 40°C
[14] = molecular target: RSV A + RSV B bivalent composition (RSV subtype A; RSV subtype B); assay: AM14 Fab titration by SEC; High-Slow 2 cycle; T0
[15] = molecular target: T1, RSV F protein of subtype A comprising a polypeptide of SEQ ID NO: 1 and a polypeptide of SEQ ID NO: 2 (RSV subtype A, UniProt P11209 137-513; P03420 26-109); assay: AM14 ELISA; F16 (pH 6, 0 mM NaCl, 0% sucrose); T0
T1 construct: Stabilized prefusion F trimer made of three F2-F1 heterodimers; Produced recombinantly in CHO cells; also called RSV A; RSVA
T1 chain 1: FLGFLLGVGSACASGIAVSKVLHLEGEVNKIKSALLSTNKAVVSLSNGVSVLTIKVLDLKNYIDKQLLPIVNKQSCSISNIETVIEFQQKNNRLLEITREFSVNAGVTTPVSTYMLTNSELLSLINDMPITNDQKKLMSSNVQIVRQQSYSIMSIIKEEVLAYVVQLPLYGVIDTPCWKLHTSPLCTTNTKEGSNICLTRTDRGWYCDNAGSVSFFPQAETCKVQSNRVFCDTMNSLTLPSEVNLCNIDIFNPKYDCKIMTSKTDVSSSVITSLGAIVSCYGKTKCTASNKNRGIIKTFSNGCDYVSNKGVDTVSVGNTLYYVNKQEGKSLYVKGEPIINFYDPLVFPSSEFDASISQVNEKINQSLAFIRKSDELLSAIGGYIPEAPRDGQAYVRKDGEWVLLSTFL
T1 chain 2: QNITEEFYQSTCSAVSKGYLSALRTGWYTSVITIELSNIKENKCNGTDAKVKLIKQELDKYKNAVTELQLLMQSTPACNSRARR

[16] = molecular target: T1, RSV F protein of subtype A comprising a …; assay: AM14 ELISA; F9 (pH 8, 50 mM NaCl, 4.5% sucrose); T0
[17] = molecular target: T1, RSV F protein of subtype A comprising a …; assay: AM14 ELISA; F16 (pH 6, 0 mM NaCl, 0% sucrose); 1 wk 25°C
[18] = molecular target: T1, RSV F protein of subtype A comprising a …; assay: AM14 ELISA; F1 (pH 8, 100 mM NaCl, 0% sucrose); 1 wk 5°C
[19] = molecular target: T1, RSV F protein of subtype A comprising a …; assay: AM14 ELISA; F3 (pH 8, 0 mM NaCl, 9% sucrose); 1 wk 5°C
[20] = molecular target: T1, RSV F protein of subtype A comprising a …; assay: AM14 ELISA; F5 (pH 6, 100 mM NaCl, 9.0% sucrose); 2 wk 25°C
[21] = molecular target: T1, RSV F protein of subtype A comprising a …; assay: AM14 ELISA; F1 (pH 8, 100 mM NaCl, 0% sucrose); 2 wk 5°C

Molecule: AM14 Fab
- Prefusion Content (%) [1]: 66%
- Prefusion Content (%) [2]: 69%
- Prefusion Content (%) [3]: 65%
- Prefusion Content (%) [4]: 59%
- Prefusion Content (%) [5]: 73%
- Prefusion Content (%) [6]: 70%
- Prefusion Content (%) [7]: 63%
- Prefusion Content (%) [8]: 59%
- Prefusion Content (%) [9]: 75%
- Prefusion Content (%) [10]: 66%
- Prefusion Content (%) [11]: 68%
- Prefusion Content (%) [12]: 68%
- Prefusion Content (%) [13]: 51%
- Prefusion Content (%) [14]: 61%

B1: AM14 (trimeric prefusion specific antibody of the AM14 ELISA) (antibody, V domains shown)
VH: EVQLVESGGGVVQPGRSLRLSCAASGFSFSHYAMHWVRQAPGKGLEWVAVISYDGENTYYADSVKGRFSISRDNSKNTVSLQMNSLRPEDTALYYCARDRIVDDYYYYGMDVWGQGATVTVSS
VL: DIQMTQSPSSLSASVGDRVTITCQASQDIKKYLNWYHQKPGKVPELLMHDASNLETGVPSRFSGRGSGTDFTLTISSLQPEDIGTYYCQQYDNLPPLTFGGGTKVEIKR
notes: Antibody as used in the AM14 ELISA, detected with an HRP-labeled secondary antibody
- AM14 prefusion content (%), relative to standard [15]: 80%
- AM14 prefusion content (%), relative to standard [16]: 94%
- AM14 prefusion content (%), relative to standard [17]: 87%
- AM14 prefusion content (%), relative to standard [18]: 96%
- AM14 prefusion content (%), relative to standard [19]: 104%
- AM14 prefusion content (%), relative to standard [20]: 98%
- AM14 prefusion content (%), relative to standard [21]: 100%
